According to patent US20140018288A1, “X-DING-CD4 Peptide” (priority 2012, published 2014):

Legend:
[1] = test system: EcoHIV (ecotropic HIV-1 EcoNDK); test: EcoHIV mouse model of HIV infection, Tat and Vif mRNA by qRT-PCR; type: in vivo, C57BL mice; details: two intraperitoneal doses of 20 μg
From the text: The mouse model of HIV infection is well-known by persons skilled in the art and is widely used to study therapeutic activities of various pharmaceutical agents. It was generated by using chimeric HIV (EcoHIV), which is a modified HIV that can infect mouse T cells and macrophages and can establish persistent infection of immunocompetent mice after intravenous or intraperitoneal exposure (Potash et al., 2005). The EcoHIV infection mouse model reproduces many characteristics of HIV-1 infection in humans such as virus targeting to lymphocytes and macrophages, induction of antiviral immune responses, neuroinvasiveness, and elevation of expression of inflammatory and antiviral factors in the brain (Potash et al., 2005). […]
In this example, we started with three groups of C57BL mice (groups I, II and III), each group having three mice. […] The amount of EcoHIV-1 virus load was assessed by determining the messenger RNA (mRNA) levels of HIV-Tat and Vif genes by quantitative RT-PCR (qRT-PCR). The amount of HIV-1 Gag DNA in the each sample, which was also determined by qRT-PCR, was used as a quantitative control for the HIV-Tat and Vif mRNA levels. […]

[2] = test system: X-DING-CD4 mRNA; test: Induction of X-DING-CD4 mRNA expression in 1G5 cells (qRT-PCR); type: cell-based; details: 6 hours, 200 ng/ml
Method: The sX-DING-CD4 may be released from the macropinosome to endoplasmic reticulum (ER) and cause induction of IFNα, which in turn induces the expression of X-DING-CD4 mRNA and endogenous X-DING-CD4 protein (step 2). The induction of X-DING-CD4 mRNA by sX-DING-CD4 was tested in 1G5 cells. Briefly, three groups of 1G5 cells were treated for 6 hours with NL4-3 HIV-1 at MOI of 0.1, 200 ng/ml native X-DING-CD4 protein, and 1-126 rX-DING-CD4 peptide (i.e., rX-DING-CD4^pep), respectively. […] The eX-DING-CD4, derived from the newly synthesized X-DING-CD4, binds CN and is transported into the nucleus where it blocks LTR transcription (steps 2-7).
Two peptide fragments from the N-terminal region of X-DING-CD4 were synthesized and their activities in inducing IFN-α and X-DING-CD4 mRNA expressions were determined by qRT-PCR. The concentration of proteins used in the assays was 200 ng/ml except for the combination of XD-1 and XD-4 where we used 100 ng/ml of each peptide. The 1-126 rX-DING-CD4 and peptide C3 p16 served as positive and negative controls, respectively. The C3 Peptide P16 was derived from the C3d component of serum complement. C3 Peptide P16 regulates B cells, but not T cells, through interacting with the gp140 C3d receptor (CR2).

B1: MADINGGGATLPQPLYQTSGVLTAGFAPYIGVGSGKGKLAFLNNDYSQFGTGTKNVHWAGSDSKLTSTELSTYASTKQAAWGKLIQVPSVATSVAIPFNKAGSNAVDLSVDQLCGVFSGRITTWNQ (protein, listed as Homo sapiens)
chain: MADINGGGATLPQPLYQTSGVLTAGFAPYIGVGSGKGKLAFLNNDYSQFGTGTKNVHWAGSDSKLTSTELSTYASTKQAAWGKLIQVPSVATSVAIPFNKAGSNAVDLSVDQLCGVFSGRITTWNQ
Q: Which results are given for B1?
A: expression of EcoHIV Tat mRNA and vif mRNA versus saline or heat inactivated peptide ([1]; 48 hours): decreased expression; transcription of EcoHIV blocked ([1]; two days after infection): 75%; expression of X-DING-CD4 mRNA [2]: induced expression of X-DING-CD4 mRNA
